Source: paper doi:10.1101/2025.04.24.648904 (bioRxiv, 2025)

Biological target: Hsp90 (Hsp82), full length (S. cerevisiae, UniProt P02829 1-709)
Experiment: AUC

Sequence of Hsp90 (Hsp82), full length (P02829 whole entry): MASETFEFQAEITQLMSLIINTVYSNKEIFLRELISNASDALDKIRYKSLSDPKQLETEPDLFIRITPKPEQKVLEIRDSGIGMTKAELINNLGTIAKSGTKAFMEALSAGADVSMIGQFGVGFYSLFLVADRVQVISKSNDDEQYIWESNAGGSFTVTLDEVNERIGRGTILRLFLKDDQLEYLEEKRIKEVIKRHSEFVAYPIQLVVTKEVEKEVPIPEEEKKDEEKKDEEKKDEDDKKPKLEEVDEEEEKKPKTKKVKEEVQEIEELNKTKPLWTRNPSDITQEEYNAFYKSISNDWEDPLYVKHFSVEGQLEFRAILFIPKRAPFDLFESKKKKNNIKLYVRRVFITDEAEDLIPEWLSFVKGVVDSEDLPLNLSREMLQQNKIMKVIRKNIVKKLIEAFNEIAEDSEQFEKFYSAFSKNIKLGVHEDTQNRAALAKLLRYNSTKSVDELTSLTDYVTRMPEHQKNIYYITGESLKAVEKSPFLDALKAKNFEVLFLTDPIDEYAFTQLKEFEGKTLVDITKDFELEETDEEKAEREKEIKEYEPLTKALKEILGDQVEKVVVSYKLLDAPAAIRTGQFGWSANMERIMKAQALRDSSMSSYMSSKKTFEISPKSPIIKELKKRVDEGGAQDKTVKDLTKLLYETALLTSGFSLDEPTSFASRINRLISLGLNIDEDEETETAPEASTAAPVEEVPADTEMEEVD

Kd: 510 nM
B1: Sgt1 (Suppressor of the G2 Allele of Skp1), full length (natural protein, S. cerevisiae, UniProt Q08446 1-395, looked up)
chain: MPVEKDLKTAYKALYDEKEPLKALHLYDEILKGSPTNLTALIFKAACLEKLYFGFSDWHSDATMENAKELLDKALMTAEGRGDRSKIGLVNFRYFVHFFNIKDYELAQSYFKKAKNLGYVDDTLPLWEDRLETKLNKKNKKQKDSTNKHTIKPVESIENRGDNNSSHSPISPLKIETAPQESPKFKIDWYQSSTSVTISLFTVNLPESKEQVNIYISPNDRRTLSISYQVPKSGSEFQYNAKLSHEVDPKAVSLKIFPKKLEITLSKIDSTQWKKLEEDILTESSRLSDEGKNSDSATRLLSAETASKERLSYPSSSKKKIDWSKLDIDEEADEEAGSADSFFQKLYAGADPDTKRAMMKSFIESNGTALSTDWEDVSKGTVKTSPPEGMEPKHW
modifications: Atto488 (maleimide) label where it is the labeled species in aUC
